# Measurements published in patent US20250235545A1, “POLYPEPTIDE CONJUGATE AND USE THEREOF” (SHANGHAI CHIXI BIOMEDICAL TECHNOLOGY CO., LTD, priority 2024, published 2025).
# Read-outs that look alike come from different tables or passages of the source. Where a SMILES comes first, the peptide text is derived from it. The star is where a group is joined. NEt(2-(20S-CPT-7-yl)ethyl) = CCN(CCc1c2c(nc3ccccc13)-c1cc3c(c(=O)n1C2)COC(=O)[C@]3(O)CC)*; X1 = CC[C@@]1(O)C(=O)OCc2c1cc1n(c2=O)Cc2c-1nc1ccccc1c2CCN(C1CCC1)*; X3 = CC[C@@]1(O)C(=O)OCc2c1cc1n(c2=O)Cc2c-1nc1ccccc1c2CCN(C1CC1)*; Propanoyl(3-maleimido) = O=C1C=CC(=O)N1CCC(=O)*; PEG6 = NCCOCCOCCOCCOCCOCCOCCC(=O)O
# Columns and labels:
# [1] = tested on: A2780 (ovarian cancer); assay: cells; type: cell-based; details: CCK8, 48 h; Table 6
# Method in brief: (§1)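 Cells seeded at 5,000 cells/well in RPMI1640 or DMEM high-glucose with 10% FBS and 1 mM sodium pyruvate, exposed to graded drug concentrations for 48 h at 37° C., 5% CO2; 0.1% DMSO controls. CCK8 added for ~2 h, absorbance 450 nm; survival rates and IC50 calculated.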
# [2] = tested on: A549 (non-small cell lung cancer); assay: cells; type: cell-based; details: CCK8, 48 h; Table 6
# Method in brief: as §1
# [3] = tested on: SJSA-1 (sarcoma tissue); assay: cells; type: cell-based; details: CCK8, 48 h; Table 6
# Method in brief: as §1
# [4] = tested on: SKBR3 (breast cancer tissue); assay: cells; type: cell-based; details: CCK8, 48 h; Table 6
# Method in brief: as §1
# [5] = tested on: colo320 (colorectal cancer tissue); assay: cells; type: cell-based; details: CCK8, 48 h; Table 6
# Method in brief: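 Colo320 cells, 5,000 per well, exposed to drug concentration series for 48 h at 37 °C, 5% CO2 (0.1% DMSO controls). Viability by CCK8, absorbance at 450 nm after about 2 h. Survival rates and IC50 calculated.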
# [6] = tested on: sarcoma SJSA-1 tumor model; details: Table 7
# Method in brief: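 SJSA-1 cells (2×10^7, DMEM/10% FBS, under 15 passages) implanted subcutaneously in right chest of female BALB/c nude mice, 6-8 weeks old. At ≥100 mm^3, randomized three per group; dosing once weekly for three weeks, saline as control, day 1 = first treatment.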
# [7] = tested on: colo320 colorectal cancer tumor model
# Method in brief: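 Female BALB/c nude mice, 6–8 weeks old, received 7.5×10^6 colo320 cells subcutaneously in the right chest. Once tumors reached at least 120 mm^3 they were randomized three per group. Treatment with test agents or saline control was given once weekly for four weeks.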
# [8] = tested on: sarcoma SJSA-1 tumor model; assay: Efficacy in animal model of sarcoma SJSA-1, 30 mg/kg once a week for two weeks (Example 40); type: in vivo, BALB/c mice; details: 30 mg/kg once a week for two weeks
# Experimental: Test objective: To further compare the antitumor efficacy of different polypeptide Linkers in an animal tumor model of sarcoma SJSA-1.
# (§2) Test drug: Polypeptide conjugate and normal saline control group.
# The control group was administered normal saline. Administration was performed once a week for two weeks.
# [9] = MTD determination in mice (Examples 27, 36, 44); type: in vivo; details: female, mouse, in vivo; mice, monitored for 14 d; Table 9
# From the text: Test animals: 6-8 weeks old mice, all female; mice were grouped randomly, with six mice in each group, administered with drugs at different concentration gradients separately and monitored for 14 d. A mouse was euthanized at a loss of 20% of its initial weight and deemed to have died of poisoning.
# [10] = Tumor homogenate activation efficiency, ovarian cancer tissue (Examples 28, 37); type: in vitro ADME; details: pH 5.0, 37° C., 2 h; Table 10
# Method in brief: (§3)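 1 mg/ml conjugate, pH 5.0 (50 mM MES, 250 mM NaCl); + 100 μg tissue homogenate; 37° C, 2 h. HPLC, release = Belotecan area / total Belotecan-containing area.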
# [11] = Tumor homogenate activation efficiency, sarcoma tissue (Examples 28, 37); type: in vitro ADME; details: pH 5.0, 37° C., 2 h; Table 10
# Method in brief: as §3
# [12] = Tumor homogenate activation efficiency, breast cancer tissue (Examples 28, 37); type: in vitro ADME; details: pH 5.0, 37° C., 2 h; Table 10
# Method in brief: as §3
# [13] = Tumor homogenate activation efficiency, non-small cell lung cancer tissue (Examples 28, 37); type: in vitro ADME; details: pH 5.0, 37° C., 2 h; Table 10
# Method in brief: as §3
# [14] = Tumor homogenate activation efficiency, colorectal cancer tissue (Example 37); type: in vitro ADME; details: pH 5.0, 37° C., 2 h; Table 10
# Experimental: Buffer preparation: 50 mM PH buffer (MES), 250 mM NaCl, pH adjusted to 5.0 with 0.5 M of sodium hydroxide.
# The polypeptide conjugate was prepared into a 1 mg/ml solution with pH 5.0 buffer, 100 μg of tumor tissue homogenate was added, (the tumor tissue homogenate was the homogenate of tumor tissues prepared with a Jingxin F6/10 handheld homogenizer), and the solution was placed at 37° C. for 2 h. The tumor tissue homogenate could effectively activate the polypeptide conjugate and release Belotecan, and the activation efficiencies of the drugs in tumor tissues were compared by HPLC allowing determination of a decrease in the compounds and an increase in Belotecan:
# Release percentage=peak area of Belotecan/total peak area of Belotecan and all other Belotecan-containing compounds
# [15] = Homogenate activation efficiency, heart tissue (Examples 28, 37); type: in vitro ADME; details: pH 5.0, 37° C., 2 h; Table 10
# [16] = tested on: A2780 ovarian cancer tumor model; assay: Efficacy in animal model of A2780 ovarian cancer, 30 mg/kg once a week for two weeks (Example 41); type: in vivo, BALB/c mice; details: Day 14
# Experimental: Test objective: To further compare the antitumor efficacy of different polypeptide Linkers in an animal tumor model of A2780 ovarian cancer.
# as §2
# 8×10^6 corresponding cells were injected into right axillas of nude mice subcutaneously. […] The negative control group was administered normal saline. Administration was performed once a week for two weeks.
# [17] = 15 mg/kg once a week for three weeks
# [18] = 45 mg/kg once a week for three weeks
# [19] = 45 mg/kg once a week for four weeks, Table 8
# [20] = Table 14 (Example 43), dose 45 mg/kg, once a week for four weeks, BALB/c mice
# [21] = 15 mg/kg once a week for four weeks, Table 8
SMILES,IC50 Ovarian cancer tissue (A2780) [1] [µg/mL],IC50 Non-small cell lung cancer tissue (A549) [2] [µg/mL],IC50 Sarcoma tissue (SJSA-1) [3] [µg/mL],IC50 Breast cancer tissue (SKBR3) [4] [µg/mL],IC50 Colorectal cancer tissue (colo320) [5] [µg/mL],"Mouse weight (%) [6, 17]","Mouse weight (%) [6, 18]","Mouse weight (%) [7, 19]",Mouse weight (%) on Day 14 ([8]; Day 14),MTD at 14 d [9] [mg/kg],Percentage of release efficiency (%) Ovarian cancer tissue (A2780) [10] [%],Percentage of release efficiency (%) Sarcoma tissue (SJSA1) [11] [%],Percentage of release efficiency (%) Breast cancer tissue (SKBR3) [12] [%],Percentage of release efficiency (%) Non-small cell lung cancer tissue (A549) [13] [%],Percentage of release efficiency (%) Colorectal cancer tissue (colo320) [14] [%],Percentage of release efficiency (%) Heart tissue [15] [%],"Mouse weight (%) [7, 21]",Mouse weight (%) on Day 14 [16],also measured
CCN(CCc1c2c(nc3ccccc13)-c1cc3c(c(=O)n1C2)COC(=O)[C@]3(O)CC)C(=O)[C@H](CC(C)C)NC(=O)[C@H](CC(N)=O)NC(=O)[C@H](C)NC(=O)[C@H](C)NC(=O)CCOCCOCCOCCOCCOCCOCCNC(=O)CCN1C(=O)C=CC1=O [MI-6PEG-AANL-D2] ({Propanoyl(3-maleimido)-PEG6}-AANL-{NEt(2-(20S-CPT-7-yl)ethyl)}),1.31,2.57,1.58,3.28,4.65,+41%,+24%,+19%,+1.9%,200,71.3,67.1,73.5,73.6,65,0.9,–,–,"SJSA-1 (sarcoma tissue) growth rate (%) [6, 17]: 1316.56%; SJSA-1 (sarcoma tissue) mean tumor volume (mm^3) [6, 17]: 1645.7 mm^3; SJSA-1 (sarcoma tissue) growth rate (%) [6, 18]: 964.08%; SJSA-1 (sarcoma tissue) mean tumor volume (mm^3) [6, 18]: 1213.3 mm^3; colo320 (colorectal cancer cell) growth rate (%) [7, 19]: 760.87%; colo320 (colorectal cancer cell) mean tumor volume (mm^3) [7, 19]: 894.4 mm^3; Mouse weight (%) [7, 20]: +19%; colo320 (colorectal cancer cell) growth rate (%) [7, 20]: 760.87%; colo320 (colorectal cancer cell) mean tumor volume (mm^3) [7, 20]: 894.4 mm^3; SJSA-1 (sarcoma tissue) mean tumor volume (mm^3) Day 1 ([8]; Day 1): 136.59 mm^3; SJSA-1 (sarcoma tissue) mean tumor volume (mm^3) Day 4 ([8]; Day 4): 465.17 mm^3; SJSA-1 (sarcoma tissue) mean tumor volume (mm^3) Day 7 ([8]; Day 7): 891.36 mm^3; SJSA-1 (sarcoma tissue) mean tumor volume (mm^3) Day 10 ([8]; Day 10): 1320.55 mm^3; SJSA-1 (sarcoma tissue) growth rate (%) on Day 14 ([8]; Day 14): 1623.94%; SJSA-1 (sarcoma tissue) mean tumor volume (mm^3) Day 14 ([8]; Day 14): 2218.14 mm^3"
CC[C@@]1(O)C(=O)OCc2c1cc1n(c2=O)Cc2c-1nc1ccccc1c2CCN(C(=O)[C@H](CC(C)C)NC(=O)[C@H](CC(N)=O)NC(=O)[C@H](C)NC(=O)[C@H](C)NC(=O)CCOCCOCCOCCOCCOCCOCCNC(=O)CCN1C(=O)C=CC1=O)C1CC1 [MI-6PEG-AANL-D6] ({Propanoyl(3-maleimido)-PEG6}-AANL-X3),0.70,1.38,0.51,2.02,1.87,+19%,+17%,+5%,−2.5%,120,76.2,69.5,66.9,66.1,73.5,3,+25%,+5.2%,–
CC[C@@]1(O)C(=O)OCc2c1cc1n(c2=O)Cc2c-1nc1ccccc1c2CCN(C(=O)[C@H](CC(C)C)NC(=O)[C@H](CC(N)=O)NC(=O)[C@H](C)NC(=O)[C@H](C)NC(=O)CCOCCOCCOCCOCCOCCOCCNC(=O)CCN1C(=O)C=CC1=O)C1CCC1 [MI-6PEG-AANL-D7] ({Propanoyl(3-maleimido)-PEG6}-AANL-X1),0.91,1.81,1.33,2.01,2.48,+12%,+19%,+9%,−3.3%,150,66.7,71.7,72.3,74.6,76.4,2.2,+29%,+4.8%,–
